In IntAct's records for PubMed 10433268:

B1: Disks large-associated protein 1 (Rattus norvegicus (Rat)), P97836-5 (parent)
chain: MIDLFKAEWVSSVCVQVSRNGRTDQVWVPQDEWTGYTPRGKDDEIPCRRMRSGSYIKAMGDEDSGDSDTSPKPSPKVAARRESYLKATQPSLTELTTLKISNEHSPKLQIRSHSYLRAVSEVSINRSLDSLDPAGLLTSPKFRSRNESYMRAMSTISQVSEMEVNGQFESVCESVFSELESQAVEALDLPMPGCFRMRSHSYVRAIEKGCSQDDECVSLRSSSPPRTTTTVRTIQSSTGVIKLSSAVEAQSSTESAQDAYMDGQGQRGDMISQSGLSNSTESLDSMKALTAAIEAANAQIHGPASQHMGSNAAAVTTTTTIATVTTEDRKKDFKKNRCLSIGIQVDDAEESEKMAESKTSSKFQSVGVQVEEEKCFRRFTRSNSVTTAVQADLDFHDNLENSLESIEDNSCPGPMARQFSRDASTSTVSIQGSGNHYHACAADDDFDTDFDPSILPPPDPWIDSITEDPLEAVQRSVCHRDGHWFLKLLQAERDRMEGWCKQMEREERENNLPEDILGKIRTAVGSAQLLMAQKFYQFRELCEENLNPNAHPRPTSQDLAGFWDMLQLSIENISMKFDELHQLKANNWKQMDPLDKKERRAPPPVPKKPAKGPAPLIRERSLESSQRQEARKRLMAAKRAASVRQNSATESAESIEIYIPEAQTRL

Variants of: B1
Settings: with Shank1, Q9WV48-4
Shank1, Q9WV48-4, sequence (Q9WV48 other isoform, or with tags, fused parts or gaps): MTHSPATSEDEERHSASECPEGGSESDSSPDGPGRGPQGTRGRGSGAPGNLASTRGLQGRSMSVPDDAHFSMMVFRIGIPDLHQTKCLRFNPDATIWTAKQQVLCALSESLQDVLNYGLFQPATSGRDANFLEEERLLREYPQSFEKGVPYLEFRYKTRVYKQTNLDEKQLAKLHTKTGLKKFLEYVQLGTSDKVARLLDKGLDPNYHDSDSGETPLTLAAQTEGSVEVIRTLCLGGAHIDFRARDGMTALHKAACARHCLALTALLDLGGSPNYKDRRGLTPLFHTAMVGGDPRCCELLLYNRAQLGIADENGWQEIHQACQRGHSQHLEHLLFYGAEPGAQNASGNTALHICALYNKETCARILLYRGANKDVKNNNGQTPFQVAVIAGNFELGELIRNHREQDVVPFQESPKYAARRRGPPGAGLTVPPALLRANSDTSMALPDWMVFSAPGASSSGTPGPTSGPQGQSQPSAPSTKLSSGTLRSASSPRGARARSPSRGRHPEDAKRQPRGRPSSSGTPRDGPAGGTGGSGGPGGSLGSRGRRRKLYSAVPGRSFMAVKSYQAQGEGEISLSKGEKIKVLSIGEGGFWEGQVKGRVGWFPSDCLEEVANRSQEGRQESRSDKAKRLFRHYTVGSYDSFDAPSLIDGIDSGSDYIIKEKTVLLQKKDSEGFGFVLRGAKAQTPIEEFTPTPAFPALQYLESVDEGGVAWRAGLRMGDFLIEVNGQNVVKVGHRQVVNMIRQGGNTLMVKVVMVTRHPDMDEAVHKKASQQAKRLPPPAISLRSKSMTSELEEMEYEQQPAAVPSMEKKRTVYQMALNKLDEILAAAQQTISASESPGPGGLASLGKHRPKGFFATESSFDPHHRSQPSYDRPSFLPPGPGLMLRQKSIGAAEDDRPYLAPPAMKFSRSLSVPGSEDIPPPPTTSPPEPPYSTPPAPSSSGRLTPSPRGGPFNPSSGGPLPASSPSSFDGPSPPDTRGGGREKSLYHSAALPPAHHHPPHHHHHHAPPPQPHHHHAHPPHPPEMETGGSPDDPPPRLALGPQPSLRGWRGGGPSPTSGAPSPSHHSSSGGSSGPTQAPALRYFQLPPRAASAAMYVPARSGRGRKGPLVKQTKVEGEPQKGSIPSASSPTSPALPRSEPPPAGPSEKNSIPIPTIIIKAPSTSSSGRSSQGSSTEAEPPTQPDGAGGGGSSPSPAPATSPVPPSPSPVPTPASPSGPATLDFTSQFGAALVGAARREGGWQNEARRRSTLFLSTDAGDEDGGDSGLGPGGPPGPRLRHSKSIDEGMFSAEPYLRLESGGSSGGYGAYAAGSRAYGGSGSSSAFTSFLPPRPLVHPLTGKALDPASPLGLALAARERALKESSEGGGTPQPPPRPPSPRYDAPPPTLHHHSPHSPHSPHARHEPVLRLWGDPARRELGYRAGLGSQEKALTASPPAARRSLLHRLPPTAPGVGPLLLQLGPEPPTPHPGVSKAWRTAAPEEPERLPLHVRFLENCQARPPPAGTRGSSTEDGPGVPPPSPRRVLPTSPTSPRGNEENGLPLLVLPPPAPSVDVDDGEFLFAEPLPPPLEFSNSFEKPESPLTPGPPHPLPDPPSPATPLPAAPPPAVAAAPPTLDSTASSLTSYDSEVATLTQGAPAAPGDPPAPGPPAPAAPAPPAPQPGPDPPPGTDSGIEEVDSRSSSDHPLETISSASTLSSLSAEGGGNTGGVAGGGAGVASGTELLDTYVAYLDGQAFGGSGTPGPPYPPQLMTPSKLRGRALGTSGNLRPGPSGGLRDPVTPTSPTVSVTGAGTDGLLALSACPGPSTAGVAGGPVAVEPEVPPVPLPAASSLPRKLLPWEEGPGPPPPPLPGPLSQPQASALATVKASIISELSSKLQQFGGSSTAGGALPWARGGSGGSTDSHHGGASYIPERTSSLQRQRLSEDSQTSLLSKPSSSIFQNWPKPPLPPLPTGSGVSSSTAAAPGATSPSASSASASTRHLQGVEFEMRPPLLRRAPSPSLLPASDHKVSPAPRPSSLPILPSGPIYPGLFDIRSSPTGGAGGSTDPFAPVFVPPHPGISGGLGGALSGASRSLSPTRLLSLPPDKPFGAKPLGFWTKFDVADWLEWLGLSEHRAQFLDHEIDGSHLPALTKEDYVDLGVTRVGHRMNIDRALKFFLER

Variant | effect of a mutation on the interaction
R665D | decreasing interaction
T664A | disrupting interaction
T664S | decreasing interaction
L666V | decreasing interaction
L666A | disrupting interaction
